Data taken from patent US20170183404A1 (VIB VZW, published 2017).

biological target: T1, truncDelta mMor1 reconstituted in liposomes (mouse, UniProt P42866 52-358); experiment: ELISA (OD405), five-fold diluted periplasm, 10 µM Dmt1-Dalda; reference: mock liposomes
T1 construct: The assayed protein lacks the N-terminal part before the TEV site and the C-terminal part after the 3C site; It was purified, doped with Dmt1-Dalda and reconstituted in DOPC/CHS/lipid A vesicles; also called truncDelta mMor1 liposome; recombinant mMOR1 reconstituted in liposomes
T1 sequence (P42866 52-358, tags or fused parts left off): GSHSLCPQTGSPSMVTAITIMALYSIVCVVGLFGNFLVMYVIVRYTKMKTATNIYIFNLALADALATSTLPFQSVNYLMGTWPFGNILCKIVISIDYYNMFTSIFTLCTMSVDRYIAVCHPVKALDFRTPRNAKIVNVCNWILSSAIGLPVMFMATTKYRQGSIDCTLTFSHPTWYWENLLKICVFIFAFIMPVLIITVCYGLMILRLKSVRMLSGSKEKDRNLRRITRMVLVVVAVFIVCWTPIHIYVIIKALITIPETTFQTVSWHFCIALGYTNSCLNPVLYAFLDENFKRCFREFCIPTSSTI
Experimental: DNPP (Sigma, cat nr 71768) was used to develop the colorimetric signal. Absorbance was measured at OD405 nm and results are depicted in FIG. 6. […] All VHHs tested confirm specific binding to truncDelta mMor1 reconstituted in liposomes. As truncDelta mMor1 is truncated at its N- and C-terminus, most likely these VHHs interact with extracellular or intracellular Mor1 conformational epitopes.

Row | absorbance on truncDelta mMor1 liposomes relative to mock liposomes | Binder
1 | ≥ 3 fold | XA8727 (VHH, Tested as periplasmic extract; also called 599D2; Profile III VHH) VHH: QVQLVESGGGLVQAGGSLRLSCAASGFTFDDYAIAWFRQAPGKEREGVSCISSSDGSTYYADSVKGRFTISNDNAKNTVYLQMNSLKPEDTAVYYCAADLSRSCGRGYRYLEVWGQGTQVTVSS
2 | ≥ 3 fold | XA8635 (VHH, Tested as periplasmic extract and as purified protein; also called 601H10; monovalent XA8635) VHH: QVQLVESGGGLVQAGGSLRLSCAASGSISSISTMGWYRQAPGNERELVAAITSGGSTNYADSVKGRFTISRDNAKNTVYLQMNSLKPEDTAVYYCNFKYYSGSYFYKSEYDYWGQGTQVTVSS
3 | ≥ 3 fold | XA8643 (VHH, Tested as periplasmic extract; also called 598G11; X8643) VHH: QVQLVESGGGLVRPGGSLRLSCVDSERTSYPMGWFRRAPGKEREFVASITWSGIDPTYADSVADRFTISRDVANNTLYLQMNSLKHEDTAVYYCAARAPVGQSSSPYDYDYWGQGTQVTVSS
4 | ≥ 3 fold | XA8641 (VHH, Tested as periplasmic extract; also called 598A2; Profile I VHH) VHH: QVQLVESGGGLVRPGGSLRLSCVDSGRTSYPMGWFRRAPGKEREFVASITWSGIDPTYADSVADRFTISRDVANNTLYLQMNSLKHEDTAVYYCAARAPVGQSSSPYDYDYWGQGTQVTVSS
5 | ≥ 3 fold | XA8639 (VHH, also called 598A7; Nb39) VHH: QVQLVESGGGLVRPGGSLRLSCVDSERTSYPMGWFRRAPGKEREFVASITWSGIDPTYADSVADRFTTSRDVANNTLYLQMNSLKHEDTAVYYCAARAPVGQSSSPYDYDYWGQGTQVTVSS

biological target: T2, wild-type human Mor1 (human mu-type opioid receptor) (human, UniProt P35372 1-400); experiment: displacement of 1 nM [3H]-diprenorphine from WT hMor1/CHO membranes by a concentration range of XA8635
T2 construct: Used as CHO membranes (Perkin Elmer ES-542-M400UA) in the radioligand assay and on transfected CHO cells in flow cytometry; also called WT hMor1/CHO; hMor1/CHO
T2 sequence (P35372 whole entry): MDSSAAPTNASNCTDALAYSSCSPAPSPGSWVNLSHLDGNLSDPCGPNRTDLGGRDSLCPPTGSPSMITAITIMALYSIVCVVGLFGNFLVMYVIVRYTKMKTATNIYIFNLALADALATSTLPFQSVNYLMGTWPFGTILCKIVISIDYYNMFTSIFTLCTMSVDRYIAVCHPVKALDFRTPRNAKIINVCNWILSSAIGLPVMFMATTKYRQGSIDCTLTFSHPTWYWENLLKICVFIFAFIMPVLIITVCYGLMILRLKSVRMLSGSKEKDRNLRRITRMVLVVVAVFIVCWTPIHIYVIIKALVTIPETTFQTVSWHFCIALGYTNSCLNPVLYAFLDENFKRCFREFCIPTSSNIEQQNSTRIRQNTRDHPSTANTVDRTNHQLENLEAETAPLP
Experimental: The mixture was incubated for 1 hour at RT and after washing, filter bound radioligand was measured.

Row | binding result | Binder
6 | binds | XA8635 (VHH, Tested as periplasmic extract and as purified protein; also called 601H10; monovalent XA8635) VHH: QVQLVESGGGLVQAGGSLRLSCAASGSISSISTMGWYRQAPGNERELVAAITSGGSTNYADSVKGRFTISRDNAKNTVYLQMNSLKPEDTAVYYCNFKYYSGSYFYKSEYDYWGQGTQVTVSS
